Experimental findings from patent US7109167 are described below.

The target in test [1] is endothelial cell receptor for TKPPR on human aortic endothelial cells (HAEC). The test is described as follows: 5% BRU-114 bubbles on HAEC, static.
Test [2] has as its target KB cells (human epidermoid carcinoma cell line), cell surface. In words: 5% BRU-114 bubbles on KB cells, static.
Test [3] deals with endothelial cell receptor for TKPPR on human aortic endothelial cells (HAEC). The test is described as follows: 5% BRU-114 bubbles on HAEC, static, no competitor.
Test [4] deals with receptor for TKPPR on rabbit aortic endothelial cells (RAEC). In words: 5% BRU-114 bubbles on RAEC, static, no competitor.
The target of test [5] is endothelial cell receptor for TKPPR on human aortic endothelial cells (HAEC). The test is described as follows: 1% BRU-114 bubbles on HAEC, static, no competitor.
For test [6] the target is unchanged. The test is described as follows: 2% BRU-114 bubbles on HAEC, static, no competitor.
Test [7] has the same target. The test is described as follows: 10% BRU-114 bubbles on HAEC, static, no competitor.
For test [8] the target is unchanged. In words: microbubbles with 1% BRU-114 on HAEC, static, no competitor.
The target is the same in test [9]. The test is described as follows: microbubbles with 5% BRU-114 on HAEC, static, no competitor.
Test [10] has the same target. The test is described as follows: 5% BRU-114 bubbles on HAEC, static, no competitor (control).
For test [11] the target is unchanged. The test is described as follows: microbubbles with 5% BRU-114 on HAEC, static inverted culture.
The target is the same in test [12]. The test is described as follows: microbubbles on HAEC, static, manual count, 5% against 1% BRU-114.
Test [13] shares this target. The test is described as follows: 1% BRU-114 bubbles on HAEC, static, no competitor, average of duplicates.
The target is the same in test [14]. In words: 2% BRU-114 bubbles on HAEC, static, no competitor, average of duplicates.
Test [15] has the same target. The test is described as follows: 5% BRU-114 bubbles on HAEC, static, no competitor (same control as the 20th table).
The target is the same in test [16]. In words: 5% BRU-114 bubbles on HAEC, static, cells pretreated 4 h with 0 ng/mL TNFα.
The target is the same in test [17]. The test is described as follows: 5% BRU-114 bubbles on HAEC, static, cells pretreated 4 h with 1 ng/mL TNFα.
For test [18] the target is unchanged. The test is described as follows: 5% BRU-114 bubbles on HAEC, static, cells pretreated 4 h with 5 ng/mL TNFα.
The target is the same in test [19]. In words: 5% BRU-114 bubbles on HAEC, static, cells pretreated 4 h with 10 ng/mL TNFα.

No end group written: not given here.

B1: DPPE-Glu-GTKPPR (BRU-114) in gas-filled microbubbles (peptide)
peptide: GTKPPR-OH
modifications: not fully specified (N-terminus); also: built into phospholipid gas-filled microbubbles
For the molecule B1, the HAEC bubble binding in test [1] was 1120 bubbles. The same molecule had a KB cell bubble binding in [2] of 56 bubbles. The molecule also showed a Bubbles Bound-5% in test [3] of 2780 bubbles. The molecule also displayed an HAEC bubbles bound in test [3] of 1420 bubbles. Further, in test [4], the RAEC bubbles bound amounted to 751 bubbles. The Bubbles Bound-1% in test [5] worked out at 1640 bubbles. Besides, the Bubbles Bound % in [6] is 100 % of control. Further, the Bubbles Bound-10% in [7] is 1860 bubbles. Moreover, the bubbles bound, no competition in test [8] turned out to be 555 bubbles; in test [9], 726 bubbles. In addition, the Bubbles Bound was determined as 1250 bubbles in test [10]; 7050 bubbles in test [11]; 737 bubbles in test [13]; 953 bubbles in test [14]; 1250 bubbles in [15]. The same molecule displayed a % more bubbles bound than with the 1% composition in test [12] of 31%. For the same molecule, the TKPPR-Bubbles bound in [16] came to 950 bubbles; in test [17], 1520 bubbles; in test [18], 1360 bubbles; in test [19], 1020 bubbles.
